Laboratory results as given in publication PMC5473807, “Distribution and kinetics of the Kv1.3-blocking peptide HsTX1[R14A] in experimental rats” (Scientific Reports, 2017).
Like-named read-outs stand apart in the source and are kept apart here.

Assay: In vivo biodistribution by organ and tissue extraction
Parameters: species or system male Wistar rats
Details: male, Wistar, total radioactivity, rat, mean ± SD; for tissue uptake dose at 48 h / SUV at 48 h: 2880 min p.i.; for tissue uptake dose at 5 min / SUV at 5 min: 5 min p.i.; for tissue uptake dose at 1 h / SUV at 1 h: 60 min p.i.; for tissue uptake dose at 4 h / SUV at 4 h: 240 min p.i.; for tissue uptake dose at 24 h / SUV at 24 h: 1440 min p.i.
Experimental: The present study includes data obtained from a total of 50 animals. Four animals (body weight 227 ± 10 g) for each time point were injected intravenously into a tail vein or subcutaneously with approximately 0.3 MBq ([…]) [^64Cu]Cu-NOTA-HsTX1[R14A] conjugate in 0.5 mL electrolyte solution E-153 (Serumwerk Bernburg, Germany). Animals were euthanised at 5, 60, 240, 1440 and 2880 min post-injection. Blood and the major organs were collected, weighed, and counted in a cross-calibrated γ-counter (Isomed 1000, Isomed GmbH, Dresden) and Wallac WIZARD Automatic Gamma Counter (PerkinElmer, Germany). The radioactivity of the tissue samples was decay-corrected and calibrated by comparing the counts in tissue with the counts in aliquots of the injected radiotracer that had been measured in the γ-counter at the same time. The activity in the selected organs was expressed as percent-injected dose per organ (% ID) and the activity concentration in tissues and organs as standardised uptake value (SUV). Values are quoted as mean ± standard error of mean (SEM) for each group of four animals.

[1] = lung, iv, 0.3 MBq, i.v., n=4, read-out: Lung activity amount
[2] = lung, iv, 0.3 MBq, i.v., n=8, read-out: Lung activity amount
[3] = lung, iv, i.v., n=4, read-out: Lung SUV
[4] = lung, iv, i.v., n=8, read-out: Lung SUV
[5] = lung, sc, 0.3 MBq, s.c., n=4, read-out: Lung activity amount
[6] = lung, sc, s.c., n=4, read-out: Lung SUV
[7] = muscle, iv, i.v., n=4, read-out: Muscle SUV
[8] = muscle, iv, i.v., n=8, read-out: Muscle SUV
[9] = muscle, sc, s.c., n=4, read-out: Muscle SUV
[10] = pancreas, iv, 0.3 MBq, i.v., n=4, read-out: Pancreas SUV
[11] = pancreas, iv, 0.3 MBq, i.v., n=4, read-out: Pancreas activity amount
[12] = pancreas, iv, 0.3 MBq, i.v., n=8, read-out: Pancreas SUV
[13] = pancreas, iv, 0.3 MBq, i.v., n=8, read-out: Pancreas activity amount
[14] = pancreas, sc, 0.3 MBq, s.c., n=4, read-out: Pancreas SUV
[15] = pancreas, sc, 0.3 MBq, s.c., n=4, read-out: Pancreas activity amount
[16] = spleen, iv, 0.3 MBq, i.v., n=4, read-out: Spleen SUV
[17] = spleen, iv, 0.3 MBq, i.v., n=4, read-out: Spleen activity amount
[18] = spleen, iv, 0.3 MBq, i.v., n=8, read-out: Spleen SUV
[19] = spleen, iv, 0.3 MBq, i.v., n=8, read-out: Spleen activity amount
[20] = spleen, sc, 0.3 MBq, s.c., n=4, read-out: Spleen SUV
[21] = spleen, sc, 0.3 MBq, s.c., n=4, read-out: Spleen activity amount
[22] = stomach, iv, 0.3 MBq, i.v., n=4, read-out: Stomach activity amount
[23] = stomach, iv, 0.3 MBq, i.v., n=8, read-out: Stomach activity amount
[24] = stomach, sc, 0.3 MBq, s.c., n=4, read-out: Stomach activity amount
[25] = testes, iv, 0.3 MBq, i.v., n=4, read-out: Testes SUV

## CSCC[C@@H]1NC(=O)[C@@H]2CSSC[C@H](NC(=O)[C@H](CO)NC(=O)[C@H](C)NC(=O)COCCOCCNC(=O)CN3CCN(CC(=O)O)CCN(CC(=O)O)CC3)C(=O)N[C@@H](CCCNC(=N)N)C(=O)N[C@@H]([C@@H](C)O)C(=O)N3CCC[C@H]3C(=O)N[C@@H](CCCCN)C(=O)N[C@@H](CC(=O)O)C(=O)N[C@H]3CSSC[C@H](NC(=O)[C@H](CCCCN)NC(=O)[C@H](CCCNC(=N)N)NC(=O)[C@H](CC(N)=O)NC1=O)C(=O)N[C@@H](CCCCN)C(=O)N[C@H]1CSSC[C@H](NC(=O)[C@@H]4CCCN4C(=O)[C@H](CC(=O)O)NC(=O)[C@H](C)NC3=O)C(=O)N[C@@H](C)C(=O)N[C@@H](CCCCN)C(=O)N[C@@H](CCC(=O)O)C(=O)N[C@@H]([C@@H](C)O)C(=O)NCC(=O)N[C@@H](CSSC[C@@H](C(N)=O)NC(=O)[C@H](CCCNC(=N)N)NC(=O)[C@H](CC(N)=O)NC1=O)C(=O)N1CCC[C@H]1C(=O)N[C@@H](Cc1ccc(O)cc1)C(=O)NCC(=O)N[C@@H](CCCCN)C(=O)N2 [[^64Cu]Cu-NOTA-HsTX1[R14A], metal not drawn]
liver, sc, 0.3 MBq, s.c., n=4, read-out: Liver activity amount
  tissue uptake dose at 48 h: 7.85 ± 0.49 %ID
[1]
  tissue uptake dose at 5 min: 1.44 ± 0.18 %ID
  tissue uptake dose at 4 h: 0.92 ± 0.12 %ID
  tissue uptake dose at 48 h: 0.46 ± 0.06 %ID
[2]
  tissue uptake dose at 1 h: 1.24 ± 0.3 %ID
  tissue uptake dose at 24 h: 0.5 ± 0.05 %ID
[3]
  SUV at 5 min: 2.87 ± 0.32 SUV
  SUV at 4 h: 1.24 ± 0.1 SUV
  SUV at 48 h: 0.55 ± 0.03 SUV
[4]
  SUV at 1 h: 1.98 ± 0.17 SUV
  SUV at 24 h: 0.78 ± 0.13 SUV
[5]
  tissue uptake dose at 1 h: 1.64 ± 0.24 %ID
  tissue uptake dose at 4 h: 1.04 ± 0.08 %ID
  tissue uptake dose at 24 h: 0.49 ± 0.02 %ID
  tissue uptake dose at 48 h: 0.33 ± 0.01 %ID
[6]
  SUV at 1 h: 2.1 ± 0.33 SUV
  SUV at 4 h: 1.32 ± 0.12 SUV
  SUV at 24 h: 0.63 ± 0.02 SUV
  SUV at 48 h: 0.47 ± 0.01 SUV
[7]
  SUV at 5 min: 0.43 ± 0.03 SUV
  SUV at 4 h: 0.07 SUV
  SUV at 48 h: 0.19 ± 0.01 SUV
[8]
  SUV at 1 h: 0.17 ± 0.06 SUV
  SUV at 24 h: 0.18 ± 0.02 SUV
[9]
  SUV at 1 h: 0.15 ± 0.02 SUV
  SUV at 4 h: 0.08 ± 0.01 SUV
  SUV at 24 h: 0.19 ± 0.01 SUV
  SUV at 48 h: 0.16 SUV
[10]
  SUV at 5 min: 0.64 ± 0.09 SUV
  SUV at 4 h: 0.24 ± 0.01 SUV
  SUV at 48 h: 0.32 ± 0.01 SUV
[11]
  tissue uptake dose at 5 min: 0.11 ± 0.03 %ID
  tissue uptake dose at 4 h: 0.08 %ID
  tissue uptake dose at 48 h: 0.08 ± 0.01 %ID
[12]
  SUV at 1 h: 0.3 ± 0.04 SUV
  SUV at 24 h: 0.62 ± 0.16 SUV
[13]
  tissue uptake dose at 1 h: 0.06 ± 0.02 %ID
  tissue uptake dose at 24 h: 0.2 ± 0.16 %ID
[14]
  SUV at 1 h: 0.29 ± 0.03 SUV
  SUV at 4 h: 0.25 SUV
  SUV at 24 h: 0.48 ± 0.02 SUV
  SUV at 48 h: 0.28 ± 0.02 SUV
[15]
  tissue uptake dose at 1 h: 0.11 ± 0.03 %ID
  tissue uptake dose at 4 h: 0.08 ± 0.01 %ID
  tissue uptake dose at 24 h: 0.15 ± 0.01 %ID
  tissue uptake dose at 48 h: 0.07 ± 0.01 %ID
[16]
  SUV at 5 min: 4.06 ± 0.6 SUV
  SUV at 4 h: 2.4 ± 0.1 SUV
  SUV at 48 h: 0.56 ± 0.05 SUV
[17]
  tissue uptake dose at 5 min: 0.83 ± 0.12 %ID
  tissue uptake dose at 4 h: 0.67 ± 0.06 %ID
  tissue uptake dose at 48 h: 0.16 ± 0.01 %ID
[18]
  SUV at 1 h: 3.42 ± 0.42 SUV
  SUV at 24 h: 0.83 ± 0.26 SUV
[19]
  tissue uptake dose at 1 h: 0.79 ± 0.11 %ID
  tissue uptake dose at 24 h: 0.18 ± 0.04 %ID
[20]
  SUV at 1 h: 4 ± 0.21 SUV
  SUV at 4 h: 2.84 ± 0.25 SUV
  SUV at 24 h: 0.59 ± 0.03 SUV
  SUV at 48 h: 0.47 ± 0.04 SUV
[21]
  tissue uptake dose at 1 h: 1.08 ± 0.03 %ID
  tissue uptake dose at 4 h: 0.75 ± 0.03 %ID
  tissue uptake dose at 24 h: 0.15 %ID
  tissue uptake dose at 48 h: 0.15 ± 0.01 %ID
[22]
  tissue uptake dose at 5 min: 0.67 ± 0.09 %ID
  tissue uptake dose at 4 h: 1.52 ± 1.06 %ID
  tissue uptake dose at 48 h: 1.46 ± 0.37 %ID
[23]
  tissue uptake dose at 1 h: 1.28 ± 1.2 %ID
  tissue uptake dose at 24 h: 1.56 ± 1.04 %ID
[24]
  tissue uptake dose at 1 h: 1.14 ± 0.45 %ID
  tissue uptake dose at 4 h: 0.6 ± 0.03 %ID
  tissue uptake dose at 24 h: 0.82 ± 0.07 %ID
  tissue uptake dose at 48 h: 1.72 ± 1.02 %ID
[25]
  SUV at 5 min: 0.24 ± 0.03 SUV
  SUV at 4 h: 0.13 ± 0.01 SUV
testes, iv, 0.3 MBq, i.v., n=4, read-out: Testes activity amount
  tissue uptake dose at 5 min: 0.27 ± 0.05 %ID
testes, iv, 0.3 MBq, i.v., n=8, read-out: Testes SUV
  SUV at 1 h: 0.16 ± 0.01 SUV
testes, iv, 0.3 MBq, i.v., n=8, read-out: Testes activity amount
  tissue uptake dose at 1 h: 0.23 ± 0.02 %ID
